Laboratory results from patent US20130079278A1 (Novo Nordisk, published 2013).
*1 amine or outer side, *2 acyl side, *3 side chain or, on linkers, in order; H or OH if unused. Where no end group is shown, it is not given here. Side-chain parts run from the residue outwards. The star is where a group is joined. C20 diacid = O=C(O)CCCCCCCCCCCCCCCCCCC(=O)*; C18 diacid = O=C(O)CCCCCCCCCCCCCCCCC(=O)*; C16 diacid = O=C(O)CCCCCCCCCCCCCCC(=O)*; γGlu = O=C(O)[C@H](CCC(=O)[*:2])N[*:1]; AEEA = NCCOCCOCC(=O)O

Molecular target: glucagon receptor (human, UniProt P47871 26-477)
Sequence (P47871 26-477): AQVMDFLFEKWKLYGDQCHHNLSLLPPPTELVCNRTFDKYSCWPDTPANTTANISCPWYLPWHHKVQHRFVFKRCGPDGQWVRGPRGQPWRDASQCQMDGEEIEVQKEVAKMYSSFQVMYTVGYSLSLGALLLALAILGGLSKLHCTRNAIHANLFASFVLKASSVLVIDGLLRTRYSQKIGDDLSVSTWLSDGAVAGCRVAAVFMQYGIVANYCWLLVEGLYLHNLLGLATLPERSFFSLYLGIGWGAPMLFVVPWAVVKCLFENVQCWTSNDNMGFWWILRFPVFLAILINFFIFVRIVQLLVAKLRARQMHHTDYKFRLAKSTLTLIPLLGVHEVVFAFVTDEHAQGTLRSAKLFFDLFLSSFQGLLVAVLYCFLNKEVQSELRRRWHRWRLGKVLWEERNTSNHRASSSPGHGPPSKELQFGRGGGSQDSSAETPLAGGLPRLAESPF
Test: cell-based or functional assay

| Binder | Assay (I) Glucagon [EC50] |
| --- | --- |
| HSQGTFTSDYSKYLDERRAQDFVK([γGlu-γGlu-AEEA-AEEA-γGlu-C18 diacid])WLLST | 0.13 nM |
| HSQGTFTSDYSKYLDTRRAQDFVK([AEEA-γGlu-γGlu-AEEA-γGlu-C18 diacid])WLLST | 0.078 nM |
| HSQGTFTSDYSRYLDLRRAQDFVK([γGlu-γGlu-γGlu-AEEA-AEEA-γGlu-C18 diacid])WLLST | 0.243 nM |
| HSQGTFTSDYSRYLESRRAQEFVK([γGlu-γGlu-γGlu-γGlu-C18 diacid])WLLST | 0.148 nM |
| HSQGTFTSDVSKYLDTRRAQEFVK([γGlu-γGlu-AEEA-AEEA-γGlu-C18 diacid])WLLST | 0.139 nM |
| HSQGTFTSDYSKYLDARRAQDFVK([γGlu-γGlu-AEEA-AEEA-γGlu-C18 diacid])WLLQT | 0.192 nM |
| HSQGTFTSDYSRYLDLRRAQDFVK([γGlu-γGlu-γGlu-C18 diacid])WLLST | 1.32 nM |
| HSQGTFTSDYSRYLDLRRAQDFVK([γGlu-AEEA-AEEA-γGlu-γGlu-C18 diacid])WLLST | 0.91 nM |
| HSQGTFTSDYSKYLDTRRAQDFVK([γGlu-AEEA-AEEA-γGlu-C18 diacid])WLLNI | 0.413 nM |
| HSQGTFTSDYSRYLDLRRAQDFVK([γGlu-γGlu-AEEA-AEEA-γGlu-C18 diacid])WLEST | 0.136 nM |
| HSQGTFTSDYSKYLESRRAQEFVK([γGlu-γGlu-γGlu-γGlu-C18 diacid])WLLST | 0.169 nM |
| HSQGTFTSDYSRYLDLRRAQDFVK([AEEA-AEEA-γGlu-γGlu-γGlu-C18 diacid])WLLST | 0.1 nM |
| HSHGTFTSDYSKYLDSRRAKDFVK([γGlu-γGlu-AEEA-AEEA-γGlu-C18 diacid])WLLST | 0.249 nM |
| HSQGTFTSDYSKYLDTRRAQEFVK([γGlu-γGlu-AEEA-AEEA-γGlu-C18 diacid])WLLST | 0.072 nM |
| HSQGTFTSDYSRYLESRRAQEFVK([γGlu-γGlu-AEEA-AEEA-γGlu-C18 diacid])WLLST | 0.289 nM |
| HSQGTFTSDYSKYLESRRAQDFVK([γGlu-AEEA-AEEA-γGlu-C18 diacid])WLLNI | 1.12 nM |
| HSQGTFTSDYSKYLDTRRAQDFVK([γGlu-γGlu-AEEA-AEEA-γGlu-C18 diacid])WLLST-NH2 (N-terminus assumed; SMILES CC(C)C[C@H](NC(=O)[C@H](Cc1c[nH]c2ccccc12)NC(=O)[C@H](CCCCNC(=O)CC[C@H](NC(=O)CC[C@H](NC(=O)COCCOCCNC(=O)COCCOCCNC(=O)CC[C@H](NC(=O)CCCCCCCCCCCCCCCCC(=O)O)C(=O)O)C(=O)O)C(=O)O)NC(=O)[C@@H](NC(=O)[C@H](Cc1ccccc1)NC(=O)[C@H](CC(=O)O)NC(=O)[C@H](CCC(N)=O)NC(=O)[C@H](C)NC(=O)[C@H](CCCNC(=N)N)NC(=O)[C@H](CCCNC(=N)N)NC(=O)[C@@H](NC(=O)[C@H](CC(=O)O)NC(=O)[C@H](CC(C)C)NC(=O)[C@H](Cc1ccc(O)cc1)NC(=O)[C@H](CCCCN)NC(=O)[C@H](CO)NC(=O)[C@H](Cc1ccc(O)cc1)NC(=O)[C@H](CC(=O)O)NC(=O)[C@H](CO)NC(=O)[C@@H](NC(=O)[C@H](Cc1ccccc1)NC(=O)[C@@H](NC(=O)CNC(=O)[C@H](CCC(N)=O)NC(=O)[C@H](CO)NC(=O)[C@@H](N)Cc1c[nH]cn1)[C@@H](C)O)[C@@H](C)O)[C@@H](C)O)C(C)C)C(=O)N[C@@H](CC(C)C)C(=O)N[C@@H](CO)C(=O)N[C@H](C(N)=O)[C@@H](C)O) | 0.039 nM |
| HSHGTFTSDYSKYLDERRAKDFVK([γGlu-γGlu-AEEA-AEEA-γGlu-C18 diacid])WLLST | 0.237 nM |

| Binder | Assay (I) Glucagon [EC50] |
| --- | --- |
| HSQGTFTSDYSRYLDIRRAQEFVK([γGlu-γGlu-AEEA-AEEA-γGlu-C18 diacid])WLEST | 0.099 nM |
| HSQGTFTSDYSRYLDTRRAQDFVK([γGlu-γGlu-AEEA-AEEA-γGlu-C18 diacid])WLEST | 0.176 nM |
| HSQGTFTSDYSKYLDARRAQDFVK([γGlu-γGlu-AEEA-AEEA-γGlu-C18 diacid])WLLST | 0.049 nM |
| HSQGTFTSDYSRYLDLRRAQEFVK([γGlu-γGlu-AEEA-AEEA-γGlu-C18 diacid])WLLST | 0.095 nM |
| HSQGTFTSDYSKYLDVRRAQDFVK([γGlu-γGlu-AEEA-AEEA-γGlu-C18 diacid])WLLST | 0.307 nM |
| HSQGTFTSDYSKYLESRRAQDFVK([γGlu-AEEA-AEEA-γGlu-C18 diacid])WLLNL | 1.9 nM |
| HSQGTFTSDYSKYLESRRAQDFVK([γGlu-AEEA-AEEA-γGlu-C18 diacid])WLLNV | 0.92 nM |
| HSQGTFTSDYSRYLDLRRAQDFVK([γGlu-γGlu-AEEA-AEEA-γGlu-C18 diacid])WLLQT | 0.204 nM |
| HSHGTFTSDYSKYLDSRRAQDFVK([γGlu-γGlu-AEEA-AEEA-γGlu-C18 diacid])WLLNT | 0.105 nM |
| HSQGTFTSDVSRYLESRRAQEFVK([γGlu-γGlu-AEEA-AEEA-γGlu-C18 diacid])WLEST | 1.63 nM |
| HSQGTFTSDYSKYLDTRRAQEFVK([γGlu-AEEA-AEEA-γGlu-C18 diacid])WLLNL | 0.183 nM |
| HSQGTFTSDYSKYLDARRAQDFVK([γGlu-γGlu-AEEA-AEEA-γGlu-C18 diacid])WLEST | 0.07 nM |
| HSQGTFTSDYSKYLDTRRAQEFVK([γGlu-AEEA-AEEA-γGlu-C18 diacid])WLLNV | 0.12 nM |
| HSQGTFTSDYSRYLESRRAQEFVK([γGlu-γGlu-AEEA-AEEA-γGlu-C18 diacid])WLEST | 1.09 nM |
| HSQGTFTSDYSRYLDERRAQDFVK([γGlu-γGlu-AEEA-AEEA-γGlu-C18 diacid])WLLST | 0.153 nM |
| HSQGTFTSDVSKYLESRRAQEFVK([γGlu-γGlu-γGlu-γGlu-C18 diacid])WLLST | 0.118 nM |
| HSQGTFTSDYSRYLDLRRAQDFVK([γGlu-γGlu-AEEA-AEEA-γGlu-C16 diacid])WLLST | 0.067 nM |
| HSQGTFTSDYSRYLDLRRAQDFVK([γGlu-γGlu-AEEA-AEEA-γGlu-C20 diacid])WLLST | 1.07 nM |
